In US20110053195:

Legend:
[1] = test system: Wheat xylanase inhibitors WXI11.5, eluted from the Xy1A1A affinity column with 50% ethylene glycol pH 11.5
[2] = test system: xylanase inhibitors present in wheat extract (WE)

Chain of Pichia pastoris produced Xy1A1A_E79A inactive xylanase (chain, as listed by the source E79A): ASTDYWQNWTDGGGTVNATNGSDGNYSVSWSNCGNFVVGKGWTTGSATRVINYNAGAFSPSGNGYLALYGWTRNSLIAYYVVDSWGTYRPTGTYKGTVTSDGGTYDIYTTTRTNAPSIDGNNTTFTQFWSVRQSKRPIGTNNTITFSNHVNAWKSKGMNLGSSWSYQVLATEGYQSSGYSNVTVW

Pichia pastoris produced Xy1A1A_E79A inactive xylanase
% Residual Activity of Avizyme 1310 with WXI pH11.5 (0.58 µg/ml) and XylA1A E79A (100 µg/ml) [1]: 121%
% Residual Activity of XylA1A with WXI pH11.5 (0.58 µg/ml) and XylA1A E79A (100 µg/ml) [1]: 96.1%
Xylanase Activity (umol/min/mg) of Avizyme 1310 with WXI pH11.5 (0.58 µg/ml) and XylA1A E79A (100 µg/ml) [1]: 6880 µmol/min/mg
Xylanase Activity (umol/min/mg) of XylA1A with WXI pH11.5 (0.58 µg/ml) and XylA1A E79A (100 µg/ml) [1]: 4420 µmol/min/mg
recovery of xylanase activity (azo-WAXY, A595) of added Xy1A1A in wheat flour extract [2]: Of the 24 isolates tested, 9 showed recovery of xylanase activity
